Source: patent US20200079833A1 (AstraZeneca / MedImmune, published 2020)
Starred links: 1 amine or outer side, 2 acyl side, 3 side chain; linkers in the order of their positions; H or OH if unused. Non-standard residues stand in square brackets, D forms with d. Groups on a side chain read outwards from the residue. Primed or numbered codes have the meaning given here. No end group written: not given here. *: point of attachment. γGlu = O=C(O)[C@H](CCC(=O)[*:2])N[*:1]; Stearoyl = CCCCCCCCCCCCCCCCCC(=O)*; αMeF = C[C@](N)(Cc1ccccc1)C(=O)O; αMeK = C[C@](N)(CCCCN)C(=O)O; αMeS = C[C@](N)(CO)C(=O)O; PEG2′ = not defined here; Aib = CC(C)(N)C(=O)O

T1: glucose-dependent insulinotropic peptide (gastric inhibitory polypeptide) receptor (human, UniProt P48546 22-466)
T1 sequence (looked up): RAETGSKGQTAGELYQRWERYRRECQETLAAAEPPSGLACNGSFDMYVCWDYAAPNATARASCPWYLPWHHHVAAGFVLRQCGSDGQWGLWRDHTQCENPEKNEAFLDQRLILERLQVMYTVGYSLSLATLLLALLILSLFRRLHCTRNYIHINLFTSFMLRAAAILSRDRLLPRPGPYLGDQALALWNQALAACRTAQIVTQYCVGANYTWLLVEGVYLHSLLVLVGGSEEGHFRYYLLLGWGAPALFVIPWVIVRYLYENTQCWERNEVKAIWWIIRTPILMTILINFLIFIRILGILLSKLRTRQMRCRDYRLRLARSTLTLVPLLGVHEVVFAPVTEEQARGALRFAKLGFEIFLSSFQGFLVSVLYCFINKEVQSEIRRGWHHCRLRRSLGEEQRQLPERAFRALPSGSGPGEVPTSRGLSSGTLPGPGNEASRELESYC

B1: SEQ ID NO 8 (peptide)
peptide: H[Aib]EGS[αMeF]SSDVSS[αMeF]LEGEAA[αMeK]E[αMeF]IA[αMeF]VV[αMeK]GG-NH2
modifications: N-terminus assumed
SMILES: CC[C@H](C)[C@H](NC(=O)[C@](C)(Cc1ccccc1)NC(=O)[C@H](CCC(=O)O)NC(=O)[C@](C)(CCCCN)NC(=O)[C@H](C)NC(=O)[C@H](C)NC(=O)[C@H](CCC(=O)O)NC(=O)CNC(=O)[C@H](CCC(=O)O)NC(=O)[C@H](CC(C)C)NC(=O)[C@](C)(Cc1ccccc1)NC(=O)[C@H](CO)NC(=O)[C@H](CO)NC(=O)[C@@H](NC(=O)[C@H](CC(=O)O)NC(=O)[C@H](CO)NC(=O)[C@H](CO)NC(=O)[C@](C)(Cc1ccccc1)NC(=O)[C@H](CO)NC(=O)CNC(=O)[C@H](CCC(=O)O)NC(=O)C(C)(C)NC(=O)[C@@H](N)Cc1c[nH]cn1)C(C)C)C(=O)N[C@@H](C)C(=O)N[C@@](C)(Cc1ccccc1)C(=O)N[C@H](C(=O)N[C@H](C(=O)N[C@@](C)(CCCCN)C(=O)NCC(=O)NCC(N)=O)C(C)C)C(C)C

The binders below were run against T1, glucose-dependent insulinotropic … (assay: cell-based or functional assay).

Row | Binder | Primary assay EC50 (cAMP), n1 [nM] | Primary assay EC50 (cAMP), n2 [nM]
1 | H[Aib]EGS[αMeF]TSDVSK([PEG2′-PEG2′-γGlu-Stearoyl])YLEGEAAKE[αMeF]IA[αMeF]VVEGG-NH2 [SEQ ID NO 57] | 25 | 25
2 | H[Aib]EGS[αMeF]TSDVSK([PEG2′-PEG2′-γGlu-Stearoyl])YLEGEAAEE[αMeF]IA[αMeF]VVEGG-NH2 [SEQ ID NO 58] | 25 | 25
3 | H[Aib]EGS[αMeF]TSDV[αMeS]S[αMeF]LEGEAAK([PEG2′-PEG2′-PEG2′-Stearoyl])E[αMeF]IA[αMeF]VVKGG-NH2 [SEQ ID NO 56] | 26 | 26
4 | B1 | 23 | 23
5 | H[Aib]EGS[αMeF]TSDV[αMeS]S[αMeF]LEGEAAK([PEG2′-PEG2′-PEG2′-Stearoyl])E[αMeF]IAWVV[αMeK]GG-NH2 [SEQ ID NO 55] | 25 | 25
6 | H[Aib]EGS[αMeF]TSDV[αMeS]S[αMeF]LEGEAAK([PEG2′-PEG2′-PEG2′-Stearoyl])EFIA[αMeF]VV[αMeK]GG-NH2 [SEQ ID NO 54] | 26 | 26
7 | H[Aib]EGS[αMeF]TSDV[αMeS]SYLEGEAAK([PEG2′-PEG2′-PEG2′-Stearoyl])E[αMeF]IA[αMeF]VV[αMeK]GG-NH2 [SEQ ID NO 53] | 26 | 26

These binders were tested against GLP-1 receptor (human, UniProt P43220 24-463) (assay: cell-based or functional assay).

Row | Binder | Primary assay EC50 (cAMP), Mean pM GLP-1R [pM] | Primary assay EC50 (cAMP), n1 [nM] | Primary assay EC50 (cAMP), n2 [nM]
8 | H[Aib]EGS[αMeF]TSDVSK([PEG2′-PEG2′-γGlu-Stearoyl])YLEGEAAKE[αMeF]IA[αMeF]VVEGG-NH2 [SEQ ID NO 57] | 153 | 0.14 | 0.17
9 | H[Aib]EGS[αMeF]TSDVSK([PEG2′-PEG2′-γGlu-Stearoyl])YLEGEAAEE[αMeF]IA[αMeF]VVEGG-NH2 [SEQ ID NO 58] | 4720 | 5.2 | 4.3
10 | H[Aib]EGS[αMeF]TSDV[αMeS]S[αMeF]LEGEAAK([PEG2′-PEG2′-PEG2′-Stearoyl])E[αMeF]IA[αMeF]VVKGG-NH2 [SEQ ID NO 56] | 3.2 | 0.0029 | 0.0035
11 | B1 | 88 | 0.071 | 0.11
12 | H[Aib]EGS[αMeF]TSDV[αMeS]S[αMeF]LEGEAAK([PEG2′-PEG2′-PEG2′-Stearoyl])E[αMeF]IAWVV[αMeK]GG-NH2 [SEQ ID NO 55] | 1.8 | 0.0014 | 0.0023
13 | H[Aib]EGS[αMeF]TSDV[αMeS]S[αMeF]LEGEAAK([PEG2′-PEG2′-PEG2′-Stearoyl])EFIA[αMeF]VV[αMeK]GG-NH2 [SEQ ID NO 54] | 0.9 | 0.00079 | 0.00093
14 | H[Aib]EGS[αMeF]TSDV[αMeS]SYLEGEAAK([PEG2′-PEG2′-PEG2′-Stearoyl])E[αMeF]IA[αMeF]VV[αMeK]GG-NH2 [SEQ ID NO 53] | 0.9 | 0.00083 | 0.0009

The binders below were run against glucagon receptor (human, UniProt P47871 26-477) (assay: cell-based or functional assay).
Sequence of glucagon receptor (P47871 26-477): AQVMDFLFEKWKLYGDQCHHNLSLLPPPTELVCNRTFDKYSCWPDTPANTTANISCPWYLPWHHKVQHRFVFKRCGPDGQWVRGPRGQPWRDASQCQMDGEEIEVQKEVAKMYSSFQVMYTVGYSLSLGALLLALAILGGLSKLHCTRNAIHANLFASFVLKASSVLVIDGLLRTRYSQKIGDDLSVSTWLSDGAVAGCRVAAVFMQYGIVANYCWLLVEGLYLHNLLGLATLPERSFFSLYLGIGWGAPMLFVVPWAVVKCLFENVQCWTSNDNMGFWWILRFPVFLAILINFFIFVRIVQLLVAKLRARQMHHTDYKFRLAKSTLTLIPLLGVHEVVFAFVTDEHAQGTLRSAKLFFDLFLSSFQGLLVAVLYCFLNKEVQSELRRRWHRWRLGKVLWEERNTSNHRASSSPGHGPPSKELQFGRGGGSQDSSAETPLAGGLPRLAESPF

Row | Binder | Primary assay EC50 (cAMP), n1 [nM] | Primary assay EC50 (cAMP), n2 [nM]
15 | H[Aib]EGS[αMeF]TSDVSK([PEG2′-PEG2′-γGlu-Stearoyl])YLEGEAAKE[αMeF]IA[αMeF]VVEGG-NH2 [SEQ ID NO 57] | 25 | 25
16 | H[Aib]EGS[αMeF]TSDVSK([PEG2′-PEG2′-γGlu-Stearoyl])YLEGEAAEE[αMeF]IA[αMeF]VVEGG-NH2 [SEQ ID NO 58] | 25 | 25
17 | H[Aib]EGS[αMeF]TSDV[αMeS]S[αMeF]LEGEAAK([PEG2′-PEG2′-PEG2′-Stearoyl])E[αMeF]IA[αMeF]VVKGG-NH2 [SEQ ID NO 56] | 26 | 26
18 | B1 | 7.8 | 12
19 | H[Aib]EGS[αMeF]TSDV[αMeS]S[αMeF]LEGEAAK([PEG2′-PEG2′-PEG2′-Stearoyl])E[αMeF]IAWVV[αMeK]GG-NH2 [SEQ ID NO 55] | 25 | 25
20 | H[Aib]EGS[αMeF]TSDV[αMeS]S[αMeF]LEGEAAK([PEG2′-PEG2′-PEG2′-Stearoyl])EFIA[αMeF]VV[αMeK]GG-NH2 [SEQ ID NO 54] | 26 | 26
21 | H[Aib]EGS[αMeF]TSDV[αMeS]SYLEGEAAK([PEG2′-PEG2′-PEG2′-Stearoyl])E[αMeF]IA[αMeF]VV[αMeK]GG-NH2 [SEQ ID NO 53] | 26 | 26
